{"source": "patent US9664676B2", "about": "“RNA sequences that induce fluorescence of small molecule fluorophores” (Cornell University, priority 2013, dated 2017)", "molecules": {"B1": {"name": "dBroccoli: dimeric Broccoli, SEQ ID NO: 12 (nucleic acid)", "chain": "GAGACGGUCGGGUCCAUCUGAGACGGUCGGGUCCAGAUAUUCGUAUCUGUCGAGUAGAGUGUGGGCUCAGAUGUCGAGUAGAGUGUGGGCUC", "modifications": "listed as RNA, chemistry not fully specified"}, "B2": {"name": "29-1: 99-nucleotide RNA aptamer from SELEX-FACS, SEQ ID NO: 3 (nucleic acid)", "chain": "GGAGACGCAACUGAAUGAAAUGGUGAAGGAGACGGUCGGGUCCAGGCACAAAAAUGUUGCCUGUUGAGUAGAGUGUGGGCUCCGUAACUAGUCGCGUCAC", "modifications": "listed as RNA, chemistry not fully specified"}}, "key": {"COS-7 cells [1]": {"system": "COS-7 cells", "experiment": "Analysis of DFHBI cell permeability", "type": "in vitro ADME", "conditions": "mammalian cells, 20 μM DFHBI", "protocol": "Analysis of DFHBI Cell Permeability: COS-7 cells were transfected with pCDNA-60CGG-Spinach2. 24 h after transfection, cells were imaged in medium supplemented with 25 mM HEPES, 5 mM MgSO4, 1 μg/ml Hoechst 33342 and 20 μM DFHBI. Images were acquired for Hoechst and Spinach2 signals every 5 min for 1 h for 20 cells. All signals were first normalized to area and then normalized to the highest signal for a given nucleus to determine the time for maximal signal to be reached."}, "COS-7 cells [2]": {"system": "COS-7 cells", "experiment": "Live cell imaging of (CGG)60-Spinach / (CGG)60-Spinach2 in COS-7 cells", "type": "cell-based", "conditions": "at 8 h, 1 μg/ml", "protocol": "Transfection of COS-7 Cells and Live Cell Imaging: COS-7 cells (ATCC-CRL-1651) were cultured and passaged in DMEM supplemented with 50 units of penicillin and 50 μg of streptomycin per milliliter. […] Cells were imaged in CO2-independent medium (Invitrogen) supplemented with L-glutamine. At 30 min-1 h before imaging, medium was supplemented with 25 mM HEPES, 5 mM MgSO4, 1 μg/ml Hoechst 33342 (when appropriate) and 20 μM DFHBI or vehicle. […] Spinach was imaged with a filter cube typically used for fluorescein or EGFP, with a sputter-coated excitation filter 470/40 nm, dichroic mirror 495 nm (long-pass), and emission filter 525/50 (Chroma Technology). DsRed-Max and mCherry were imaged using a filter cube typically used for Texas Red, with a sputter coated excitation filter 560/40 nm and emission filter 630/75 nm (Chroma Technology). Background intensity was subtracted from all pixel intensity measurements. Image analyses were completed with NIS-Elements AR 3.2 (Nikon). Drug treatments were carried out as specified. […] DMSO was added to a final concentration of 0.1% for vehicle treatments. […] After 2 h, the transfection medium was replaced with imaging medium containing DFHBI."}, "E. coli": {"system": "E. coli", "experiment": "Fluorescence measurements of E. coli (colonies, suspensions) expressing aptamers with DFHBI-1T", "type": "cell-based, Escherichia coli", "conditions": "tRNA fusions, suspension/plate reader, DFHBI-1T", "protocol": "Fluorescence Measurements of E. coli: Fluorescence measurements of E. coli were done in two general ways. To assess fluorescence brightness of bacterial colonies on a plate Acella or LMG194 strains cells were transferred to a new LB/agar dish with respective antibiotic and allowed to grow overnight at 37° C. Typically four to six colonies for the same aptamer were grown on the same plate to provide statistical data. These plates already contained 40 μM DFHBI-1T (or DFHBI) and 0.2% arabinose (in case of LMG194 strain). When Acella strain was used, 1 mM IPTG was added the next morning and incubation was continued for four to six hours more at 37° C. Bacterial colonies were then imaged under ChemiDoc MP imager as described above and images were processed in ImageJ program.\nTo measure fluorescence of bacterial cell suspensions BL21 Star (DE3) (Life Technologies) strain and pET28c-based expression plasmids were used. This combination provided the strongest signal. Fresh colony was inoculated into LB media with kanamycin and allowed to grow overnight at 37° C. to OD600 0.4. The cells were then induced with addition of 1 mM IPTG for 2-4 h at 37° C. After induction, cells were normalized for cell density and incubated with 400 μM DFHBI-1T. Cells were then measured for total fluorescence using a Genios Pro plate reader at 465 nm excitation and 535 nm emission. All values were normalized for slightly different excitation and emission spectra of Spinach2 and Broccoli."}, "[3]": {"experiment": "In-gel imaging of tBroccoli and tdBroccoli (DFHBI-1T / SYBR Gold staining)", "type": "biochemical", "conditions": "in vitro transcribed tBroccoli and tdBroccoli in PAGE gel", "protocol": "In-Gel Imaging of Spinach-Containing RNAs: Total bacterial RNA was purified using Trizol LS reagent (Life Technologies) following the manufacturer's protocol. Typically, 200-500 ng of total RNA or 50-100 ng of in vitro transcribed RNA was loaded into a well of precast 6% TBE-Urea Gel (Life Technologies) and ran at 270-300 V in 1×TBE buffer. RiboRuler Low Range RNA Ladder (Thermo Scientific) was used as band size standard.\nAfter the gel was run to completion, the gel was washed 3×5 min with water and then stained for 30 min in 10 μM DFHBI or DFHBI-1T in buffer containing 40 mM HEPES pH 7.4, 100 mM KCl, 1 mM MgCl2. Then gel was imaged using a ChemiDoc MP with 470/30 nm excitation and 532/28 nm emission. Next, to see all the RNA in the sample, the gel was again washed 3×5 min with water followed by staining for 30 min with SYBR Gold (or Green) dye (Life Technologies) diluted 1/10000 in TBE buffer. Then gel was imaged under the same instrument using preset SYBR Gold (or Green) channel (302 nm excitation and 590/110 nm emission). Gel bands intensities were quantified in Image Lab 5.0 software (Bio-Rad). The bacterial 5S rRNA band was used for loading normalization."}, "HEK293T cells": {"system": "HEK293T cells", "experiment": "Flow cytometry of HEK293T cells expressing 5S rRNA-aptamer fusions with DFHBI-1T", "type": "cell-based", "conditions": "flow cytometry", "protocol": "FIG. 24 illustrates the quantification of the flow cytometry analysis of aptamers expression in mammalian cells. To compare specific aptamers' brightness in mammalian cells, HEK293T cells were transfected with two plasmids: one expressing aptamer (with or without tRNA) fused to 5S rRNA and another expressing mCherry fluorescent protein. Cells were then treated with 40 μM DFHBI-1T and analyzed on FACSAria III instrument in two channels: green (ex=488 nm; em=525±50 nm) and red (ex=561 nm and em=610±20). For quantification, mean fluorescent signal of the non-negative population was calculated and then mean fluorescent signal of the negative population was subtracted from it to assess specific, not background fluorescent signal. Finally, this number was multiplied by the percentage of the non-negative population to provide the total fluorescent signal of the non-negative population. These numbers are plotted on the bar graph above. Where indicated, cells were also pre-treated with 5 mM MgSO4. Error bar indicates robust SD calculated by FlowJo program, used for data analysis.\nImaging 5S-tBroccoli and 5S-t-tdBroccoli: Plasmids were transfected into HEK293T cell using FuGENE HD reagent (Promega) following manufacture's protocol. Cell imaging was carried out as previously described for 5S-Spinach (Paige et al., “RNA Mimics of Green Fluorescent Protein,” Science 333(6042): 642-6 (2011), which is hereby incorporated by reference in its entirety) with DFHBI-1T instead of DFHBI. […]\nFlow cytometry was used to quantify average brightness of tRNA. Transfected cells were analyzed in two channels: green (ex=488 nm; em=525±50 nm) and red (ex=561 nm; em=610±20). […] As evidenced from FIG. 14A, 5S-tBroccoli and 5S-tdBroccoli are clearly detectable in the green fluorescence channel and this specific signal appears only upon cells treatment with DFHBI-1T (FIG. 23)."}, "[4]": {"experiment": "Fluorescence of aptamers bound to DFHO", "type": "biochemical", "protocol": "To explore this phenomenon further, a library containing over 10 million mutants of this sequence was prepared. Each of the sequences was individually expressed in E. coli bacteria. The bacteria was incubated with the fluorophore DFHO and then sorted based on their fluorescent signal on a fluorescence-activated cell sorting (FACS) instrument. Analysis of the mutations introduced into the 29-1 aptamer allowed prediction of the core sequence necessary for binding DFHO. The possibility that the core binding sequence for DFHO fluorophore is the same as for the DFHBI fluorophore was also considered. The core binding sequence for DFHBI fluorophore is identified in preceding Example 21."}, "[5]": {"experiment": "In vitro fluorescence activation of DFHBI by 29-1", "type": "biochemical", "conditions": "bound to DFHBI", "text": "(§1) In Vitro Characterization of Aptamers: dsDNA from the brightest bacterial cells in a library was PCR amplified from eluted plasmids. Truncation, deletion and point mutation mutants were generated from dsDNAs PCR amplified based on respective ssDNA templates (Protein and Nucleic Acid Facility, Stanford University Medical Center). Primers were designed so the PCR product contained T7 promoter sequence. When indicated, dsDNA or ssDNA also contained tRNA scaffold part. PCR products were then purified with PCR purification columns (Qiagen) and in vitro transcribed utilizing AmpliScribe T7-Flash Transcription Kit (Epicenter). RNA was purified using Bio-Spin columns (Bio-Rad), and quantified using both absorbance values and the Quant-iT RiboGreen RNA Assay Kit (Life Technologies).\nAll in vitro RNA properties were measured in 40 mM HEPES pH 7.4, 100 mM KCl, 1 mM MgCl2 buffer unless specified separately. […]\nTo measure the fluorescence of aptamer-fluorophore complexes, an approach that overcomes potential confounding effects of incomplete RNA folding was used. The fluorescence of RNA-fluorophore complexes can be measured in either of two ways: using “excess RNA” or “excess fluorophore” (Ponchon et al., “Recombinant RNA Technology: the tRNA Scaffold,” Nat. Methods 4(7): 571-6 (2007), which is hereby incorporated by reference in its entirety). […]"}, "[6]": {"experiment": "In vitro fluorescence activation of DFHBI-1T by 29-1 and truncation mutants", "type": "biochemical", "conditions": "bound to DFHBI-1T", "text": "as §1\nAll in vitro RNA properties were measured in 40 mM HEPES pH 7.4, 100 mM KCl, 1 mM MgCl2 buffer unless specified separately. All values presented are averaging of at least three independent experiments, error bars are standard deviations.\n(§2) To measure the fluorescence of aptamer-fluorophore complexes, an approach that overcomes potential confounding effects of incomplete RNA folding was used. The fluorescence of RNA-fluorophore complexes can be measured in either of two ways: using “excess RNA” or “excess fluorophore” (Ponchon et al., “Recombinant RNA Technology: the tRNA Scaffold,” Nat. Methods 4(7): 571-6 (2007), which is hereby incorporated by reference in its entirety). In an “excess RNA” experiment enough RNA was added to ensure that all the fluorophore (e.g. 1 μM) is bound to the RNA even if a sizeable portion of the RNA is unfolded. As a result, one can be confident that a 1 μM RNA-fluorophore complex is present, and one can therefore calculate the “molar brightness,” the fluorescence of a specific concentration of RNA-fluorophore complex independent of RNA folding. In the case of excess fluorophore experimental conditions were reversed and 1 μM of RNA was used with a vast excess of the fluorophore. In this case, the amount of RNA-fluorophore complex is highly dependent on the amount of RNA that is folded."}, "[7]": {"experiment": "Folding measurements with DFHBI-1T", "type": "physicochemical", "conditions": "in vitro folding assay", "protocol": "Briefly, fluorescence intensity of two solutions were compared: the one having excess of the dye and limiting amount of RNA and the other with excess of RNA and limiting amount of the dye. 1 μM of 1T (or RNA) and 20 μM of RNA (or 1T) was used. Signal from the first condition (limiting RNA) was divided by the signal from the second condition (limiting dye) to determine the fraction folded. To measure folding in a context of different flanking sequences RNA was generated from separate dsDNA fragments. These fragments were PCR amplified to have β-actin, 5S rRNA and 7SK RNA sequences on either or both sides of Broccoli. The folding assay then proceeded as described above.\nas §2"}}, "note": "*1 amine or outer side, *2 acyl side, *3 side chain or, on linkers, in order; H or OH if unused. Where a SMILES comes first, the peptide text is derived from it. Bridges are numbered along the chain shown (N, C = ends). Roman numbers before positions name the chains, in order. [ ]: non-standard residue; d: D form. Actinocin(9to1) = Cc1c2oc3c(C)ccc(C(=O)[*:1])c3nc-2c(C(=O)[*:2])c(N)c1=O; NMeV = CN[C@H](C(=O)O)C(C)C; Sar = CNCC(=O)O", "data": [{"molecule": "CC1=NC(=Cc2cc(F)c(O)c(F)c2)C(=O)N1C", "note": "[DFHBI, 4-(3,5-difluoro-4-hydroxybenzylidene)-1,2-dimethyl-imidazol-5-one]", "values": [{"measurement": "time to maximal fluorescence (ability to enter cells)", "setting": "COS-7 cells [1]", "result": "~30", "unit": "min"}]}, {"molecule": "Cc1c2oc3c(C)ccc(C(=O)N[C@@H]4C(=O)N[C@H](C(C)C)C(=O)N5CCC[C@H]5C(=O)N(C)CC(=O)N(C)[C@@H](C(C)C)C(=O)O[C@@H]4C)c3nc-2c(C(=O)N[C@@H]2C(=O)N[C@H](C(C)C)C(=O)N3CCC[C@H]3C(=O)N(C)CC(=O)N(C)[C@@H](C(C)C)C(=O)O[C@@H]2C)c(N)c1=O", "note": "[actinomycin D] (I: T[dV]P[Sar][NMeV] / II: T[dV]P[Sar][NMeV]; ester I:1-I:C, II:1-II:C; linker I:N-II:N via Actinocin(9to1))", "values": [{"measurement": "cytotoxicity in COS-7 cells", "setting": "COS-7 cells [2]", "result": "cytotoxicity was observed"}]}, {"molecule": "B1", "values": [{"measurement": "fluorescence of aptamer-expressing E. coli cells", "setting": "E. coli", "result": "approximately twice as fluorescent as cells expressing Broccoli"}, {"measurement": "fluorescence compared to monomeric Broccoli", "setting": "[3]", "result": "almost twice the fluorescence as the monomeric Broccoli"}, {"measurement": "detection in HEK293T cells of 5S fusions without tRNA scaffold", "setting": "HEK293T cells", "result": "can be detected in cells"}]}, {"molecule": "B2", "values": [{"measurement": "effect on DFHO fluorescence", "setting": "[4]", "result": "significantly enhancing its fluorescence"}, {"measurement": "emission (em)", "setting": "[5]", "result": 501, "unit": "nm"}, {"measurement": "excitation (ex)", "setting": "[5]", "result": 450, "unit": "nm"}, {"measurement": "emission (em)", "setting": "[6]", "result": 507, "unit": "nm"}, {"measurement": "excitation (ex)", "setting": "[6]", "result": 472, "unit": "nm"}, {"measurement": "percent folded", "setting": "[7]", "result": 81, "unit": "%"}]}]}
